This data set in a line: yeast display, Sf9 membrane polyspecificity reagent, FACS + sequencing; frameworks hold sequencing errors. In short, it runs like this: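 Using colony PCR, genes from sorted yeast display clones were amplified, then sequenced on MiSeq at 2 × 250 and filtered by CDR length. The clones had been stained with 10% biotinylated, detergent-solubilized Sf9 membrane reagent for 1 hour at 4 °C and sorted by FACS into low and high (top ~1%) gates on anti-HA and streptavidin fluorescence. Polyreactivity labels come from the gate of origin.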
Turning to “QVQLVESGGGLVQAGGSLRLSCAASGRIFRAYAMGWYRQAPGKERELVAVITGSGGSTYYADSVKGRFTISRDNAKNTVYLQMNSLKPEDTAVYYCAAPVHTASGRWVPGYYYWGQGTQVTVSS”, the “polyreactivity (PSR sort gate)” value is “high polyreactivity”.

As to “QVQLVESGGGLVQAGGSLRLSCAASGRIFRAYAMGWYRQAPRKERELVAAISYRGGSTYYADSVKGRFTISRDNAKNTVYLQMNSLKPEDTAVYDCAADSDRSVWIYGYWGQGTQVTVSS”, the “polyreactivity (PSR sort gate)” value is given as “low polyreactivity”.

“QVQLVESGGGLVQAGGSLRLSCAASGRIFRDNAMGGYRQAPGKERELVASISSRTGRTYYADSVKGRFTISRDNAKNTVYLQMNSLKPEDTAVYYCAAAFIYRGPGSLKFDYWGQGTQVTVSS”: the “polyreactivity (PSR sort gate)” value was “low polyreactivity”.

Regarding “QVQLVESGGGLVQAGGSLRLSCAASGRIFRDYAMGWYRQAPGKERELVAAITGSGGRTYYADSVKGRFTISRDTAKNTVYLQMNSLKPEDTAVYYCAAYLGRRGQEMDYWGQGTQVTVSS”, the “polyreactivity (PSR sort gate)” value was “high polyreactivity”.

As for “QVQLVESGGGLVQAGGSLRLSCAASGRIFRENAMGWYRQAPGKERELVAAISSGGSTYYADSVKGRFTISRDNAKNTVYLQMNSLKPEDTAVYYCAADLSWSRVVFGDYDYWGQGTQVTVSS”, the “polyreactivity (PSR sort gate)” value was “low polyreactivity”.

For the sequence “QVQLVESGGGLVQAGGSLRLSCAASGRIFRENAMGWYRQAPGKERELVASNSLSGTSTYYADSVKGRFTISRDNAKNTVYLQMNSLKPEDTAVYYCNGERLSTDPYDRNYWGQGTQVTVSS”, the “polyreactivity (PSR sort gate)” value was “low polyreactivity”.

For the sequence “QVQLVESGGGLVQAGGSLRLSCAASGRIFRFNAMGWYRQAPGKERELVAAITGSGGTTFYADSVKGRFTISRDNAKNTVYLQMNSLKPEDTAVYYCITLGNWRPVYNQPRYEYWGQGTQVTVSS”, the “polyreactivity (PSR sort gate)” value is recorded as “high polyreactivity”.

In the case of “QVQLVESGGGLVQAGGSLRLSCAASGRIFRFYDMGWYRQAPVKESELVASISSTGGRTYYADSVKGRFTISRDNAKNTVYVQMNSLKPEDTAVYYCNATRGQYVGRYYYWGQGTQVTVSW”, the “polyreactivity (PSR sort gate)” value is “high polyreactivity”.

On to “QVQLVESGGGLVQAGGSLRLSCAASGRIFRGNAMGWYRQAPGKEREMVAAISRRSGSTYYADSVKGRFTISRDNAKNTVYLQMNSLKPEDTAVYYCAATSSLGDFRYDYWGQVTQVTVSS”, for which the “polyreactivity (PSR sort gate)” value is “high polyreactivity”.

“QVQLVESGGGLVQAGGSLRLSCAASGRIFRGYAMGWYRPAPGKERELVAAINWSGGSTDYADSVKGRFTISRDYAKNTVYLQMNSLKPEDTAVYYCSTSTCRGYSWGHGTQVTVSS”: the “polyreactivity (PSR sort gate)” value was “high polyreactivity”.

Consider “QVQLVESGGGLVQAGGSLRLSCAASGRIFRGYAMGWYRQAPGKERELVAAISQSGSSTYYADSVKGRFTISRDNAKNTVYLQMNSLKPEDTAVYFCAVKYLKHFGYWGQGTQVTVSS”, for which the “polyreactivity (PSR sort gate)” value is “high polyreactivity”.

Turning to “QVQLVESGGGLVQAGGSLRLSCAASGRIFRGYAMGWYRQAPGKERELVARITSGGRTYYADSVKGRFTISRDNAKNTVYLQMNSLKPEDTAVYYCATVGRGYDERHNYWGQGTQVTVSS”, the “polyreactivity (PSR sort gate)” value is “high polyreactivity”.

As for “QVQLVESGGGLVQAGGSLRLSCAASGRIFRGYLMGWYRQAPGKERELVAVITSGGRTYYADSVKGRFTISRDNAKNTVYLQMNSPKPEDTAVYYCATYPRYKPYYYWGQGTQVTVSS”, the “polyreactivity (PSR sort gate)” value was “low polyreactivity”.

Consider “QVQLVESGGGLVQAGGSLRLSCAASGRIFRGYTMGWYRTAPGKERELVAAISRSTGSTNYADSVKGRFTISRDNAKNTVYLQMNSLKPEDTAVYYCAAGPVDYGDWYYDVWFDYWGQGTQVTVSS”, for which the “polyreactivity (PSR sort gate)” value was “high polyreactivity”.

“QVQLVESGGGLVQAGGSLRLSCAASGRIFRKYAMGWYRQAPGKERELVAAISVGGGSTRYADSEKGRFTISRDYAKYTVYLQMNSLKPEYTAVYYCAADWAYYVASYLYYTFDYWGQGTQVTVSS”: the “polyreactivity (PSR sort gate)” value was “low polyreactivity”.

On to “QVQLVESGGGLVQAGGSLRLSCAASGRIFRKYAMGWYRQAPGTERELVATITLRGGSTYYADSVKGRFTISRDNGKNTVYLQMNSLKPEDTAVYYCATDITPAISVEYDYWGQGTQVTVSS”, for which the “polyreactivity (PSR sort gate)” value is “high polyreactivity”.

(Values after the nanobody polyreactivity screen of Harvey et al. (2022).)
